Source: patent US7888090B2, “Mutants of O6-alkylguanine-DNA alkyltransferase” (Ecole Polytechnique Federale de Lausanne, priority 2004, dated 2011)

Experiments:
[1] = Expression yield of soluble GST-AGT fusion protein; design: species or system E. coli; conditions: comparator not stated
Procedure: Expression yield is measured in E. coli or in any other of the standard production cells for genetically modified proteins, e.g. yeast, or preferably insect cells, CHO cells or HeLa cells. For quantifying expression yield, AGT fusion proteins may be chosen such that the fusion partner allows easy purification and quantification. For example, expression yield in E. coli is determined by measuring and comparing the yield of soluble and insoluble GST-wild type AGT fusion protein and GST-mutant AGT fusion protein from parallel E. coli expression cultures. Samples of the soluble fractions and insoluble fractions (i.e. the inclusion bodies) after cell lysis are subjected to SDS-PAGE, and the band staining intensities of the corresponding AGT fusion proteins are compared. Soluble protein is quantified after purification of the fusion protein from cell extracts by affinity chromatography (e.g. for GST-AGT fusion proteins by glutathione sepharose) by subjecting the purified fractions to a protein concentration assay (Bradford, Anal Biochem 72:248-54, 1976). The expression yield of similar proteins in the soluble fraction (difference in point mutations) can be used as a measure for protein stability in the unpurified as well as the purified state (Ohage et al., J Mol Biol 291:1119-1128, 1999; Wirtz et al., Protein Sci 8: 2245-50, 1999). Therefore, this is taken as a measure of folding stability and aggregation tendency.
Protein expression from this vector is carried out in E. coli strain BL21. An exponentially growing culture is induced with 0.5 mM IPTG, and the expression is carried out for 3.5 h at 24° C.
Purification: The harvested cells are resuspended in a buffer containing 50 mM phosphate, 0.5 M NaCl, 1 mM DTT, supplemented with 1 mM PMSF and 2 μg/ml aprotinin, and disrupted by lysozyme and sonification. The cell debris are separated by centrifugation at 40000×g. The extract is applied to pre-equilibrated glutathione sepharose (Amersham) which is then washed with 20 bed volumes (50 mM phosphate, 0.5 M NaCl, 1 mM DTT). The mutated GST-AGT fusion protein is eluted with 10 mM reduced glutathione in 50 mM Tris·HCl pH 7.9. The purified protein is dialyzed against 50 mM HEPES pH 7.2; 1 mM DTT; 30% glycerol and then stored at −80° C.
Determination of protein yield: Purity and relative amounts of the GST-AGT fusion proteins are compared by running samples on SDS-PAGE. UV spectra of the pure fractions are recorded using a Perkin Elmer Lambda 10. For protein samples containing no significant amount of DNA, the extinction at 280 nm as a measure of protein content is compared to that of wild type hAGT or PGEG-hAGT that were purified under the same conditions.

[2] = Activity assay with biotinylated O^6-benzylguanine (BG-Bt), Western blotting; type: biochemical; conditions: statement in words
How it was run: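 Purified mutant GST-AGT (0.2 μM) reacted with 1 μM biotinylated O^6-benzylguanine in 50 mM HEPES pH 7.2, 1 mM DTT at room temperature. Time-point aliquots quenched with O^6-benzylguanine in SDS buffer. Biotinylated protein detected by Western blot with neutravidin-peroxidase, band intensity quantified.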

DNA = DNA binding in vitro (co-purified DNA, UV spectroscopy); design: species or system E. coli
Procedure: The interaction with DNA is e.g. quantified by assessing the amount of copurified DNA from E. coli extracts under conditions of low salt and absence of DNase. This is compared between parallel purifications of fusion proteins (e.g. fusions to GST) of wild type (human) and mutant AGT by spectroscopic methods (ratio of absorbance at 260 and 280 nm). Alternatively the interaction of AGT with DNA is measured as the inhibition of AGT reactivity with BG-Cy3 (O^6-(4-aminomethyl-benzyl)-guanine coupled to Cy3) as substrate in the presence of DNA. This approach takes advantage of a marked increase of fluorescence of the Cy3 fluorophore upon reaction of BG-Cy3 with AGT. The reaction kinetics of AGT with a Cy3-labeled benzylguanine derivative is followed by fluorescence intensity measurements over several hours at various concentrations of salmon sperm DNA.
For comparing the DNA binding properties of the protein in vitro, the harvested cells are resuspended, and the GST fusion protein is purified following the same method but in a buffer containing 50 mM phosphate, 0.1 M NaCl, 1 mM DTT. In the dialysed samples, the amount of subsequently co-purified DNA is estimated by UV spectroscopy. Spectra are recorded using a Perkin Elmer Lambda 10. The content of DNA corresponds to the ratio of the extinctions at 280 and 260 nm. […]

[3] = Periplasmic expression / stability under oxidizing conditions; design: species or system E. coli
Procedure: The activities towards AGT substrates are measured after purification without addition of reducing agents such as dithiothreitol or beta-mercaptoethanol. Alternatively, the activities of mutant AGT and wild type human are compared after their export into cellular compartments with oxidising redox potential (e.g. the periplasm of E. coli due to their fusion to appropriate signal sequences. Activity towards AGT substrates under reducing and oxidising conditions is compared by performing the reactions in the presence or absence of reducing agents such as dithiothreitol or beta-mercaptoethanol.
The mutant AGT gene of Example 1 is amplified and cloned as described in Example 1 with the oligonucleotides SEQ ID NO:3, SEQ ID NO:10 and SEQ ID NO:4, SEQ ID NO:9 causing the further mutation Cys62Ala in the gene upon their incorporation by PCR. Protein expression, purification and determination of yield is carried out as described in Example 1. The mutant gene is PCR amplified with the primers SEQ ID NO:11, SEQ ID NO:12 that contain SfiI restriction sites to subclone the gene in fusion to the g3 protein of filamentous phage in the vector pAK100 (Krebber et al., J Immunol Methods 201:35-55, 1997). […] The supernatant is directly subjected to quantification of protein yield via SDS-PAGE and activity assays as described in Example 1.
Stability under oxidizing conditions: The mutant gene is PCR amplified with the primers SEQ ID NO:11 and SEQ ID NO:28 to subclone the gene into pAK100, as described in Example 2. […] To compare the reactivity of […] (Juillerat et al., Chem Biol 10:313-317, 2003) and the mutant, samples are incubated with 1 µM BG-Bt for 50 min, quenched with SDS-Laemmli buffer and analyzed by western blotting using neutravidin peroxidase conjugate (Pierce) or a monoclonal mouse anti-FLAG IgG antibody (M2, Sigma) and a secondary anti-mouse-IgG::HRP conjugate, and Renaissance reagent plus (NEN). […] The anti-FLAG IgG antibody is used to estimate the total amount of soluble AGT protein, whereas neutravidin quantifies the reactive portion of it. […]

B1: Cys62Ala, Lys125Ala, Ala127Thr, Arg128Ala, Asn157Gly, Ser159Glu, truncated after Gly182: particularly preferred hAGT mutant with the listed mutations (protein, UniProt P16455 1-207, looked up, variant C62A K125A A127T R128A N157G S159E del183-207)
Methylated-DNA--protein-cystei …: MDKDCEMKRTTLDSPLGKLELSGCEQGLHEIKLLGKGTSAADAVEVPAPAAVLGGPEPLMQATAWLNAYFHQPEAIEEFPVPALHHPVFQQESFTRQVLWKLLKVVKFGEVISYQQLAALAGNPAATAAVGGAMRGNPVPILIPCHRVVCSSGAVGGYEGGLAVKEWLLAHEGHRLGKPGLG
For B1, the “expression yield in E. coli” value [1] was “increased expression yield”, the “activity towards O^6-benzylguanine substrates” value [2] was “increased reactivity” and the “reduced DNA binding” value (DNA) was “reduced DNA binding”. The sensitivity to oxidation [3] was “reduced sensitivity to oxidation”.
